Source: patent publication US10471162B2, “Collagen targeted imaging probes” (priority 2014, dated 2019)
Where a SMILES comes first, the peptide text is derived from it. Bridges are numbered along the chain shown (N, C = ends). The star is where a group is joined. NODAGA = O=C(O)CN1CCN(CC(=O)O)CCN(C(CCC(=O)*)C(=O)O)CC1

Legend:
[1] = in vivo; assay type: in vivo, mouse; conditions: male, C57/BL6, mouse, in vivo, iv, total radioactivity; for tissue uptake at 2.5 h / tissue uptake at 2 h: Biodistribution % ID/g
Procedure: (§1) Pulmonary fibrosis was induced in 7-8-week-old male C57/BL6 mice by transtracheal administration of bleomycin (BM; 2.5 U/kg) in 50 μL of PBS under direct vision using a small cervical incision. Sham animals received only PBS. Animals were placed in a small-animal PET/SPECT/CT scanner (Triumph; TriFoil Imaging), equipped with inhalation anesthesia and heating pad. Each animal was anesthetized with isoflurane (4% for induction, 2-2.5% for maintenance in medical air) and body temperature was kept at 37-38° C. using a heating pad. The femoral vein was cannulated for intravenous delivery of the PET agent. Each mouse was injected with approximately 0.1 mL and 20-50 μCi of ^64Cu-CBP(n), 0.1 mL and 20-50 μCi of ^68Ga-CBP(n) and 0.1 mL and 10-20 μCi of Al^18F-CBP(n) in a 18 mM solution of sucrose in water, followed by saline flush. […] The lungs, blood, urine, heart, liver, left rectus femoris muscle, spleen, small intestine, kidneys, left femur bone were collected from all animals. The tissues were weighed, and radioactivity in each tissue was measured on a gamma counter (CobraII Auto gamma; Packard). The radioactivity in the lung was reported as percent injected dose per gram corrected with the average sham weight, which was calculated by dividing the counts of ^64Cu per average sham tissue weight in gram by the total of counts of the injected dose. The radioactivity in every other tissue was reported as percent injected dose per gram (% ID/g), which was calculated by dividing the counts of ^64Cu per gram of tissue by the total of counts of the injected dose. A p-value of less than 0.05 was considered significant. Uncertainties are expressed as the standard error of the mean.

[2] = test system: pulmonary fibrosis, C57/BL6 mice (bleomycin or sham); assay: in vivo; assay type: in vivo, mouse; conditions: for Biodistribution % ID/g, blood / Biodistribution % ID/g, heart / Biodistribution % ID/g, liver / Biodistribution % ID/g, spleen / Biodistribution % ID/g, bone / Biodistribution % ID/g, kidney / Biodistribution % ID/g, lungs / Biodistribution % ID/g, sm. intestine: male, C57/BL6, mouse; for Biodistribution % ID/g, blood / Biodistribution % ID/g, heart / Biodistribution % ID/g, liver / Biodistribution % ID/g, spleen / Biodistribution % ID/g, bone / Biodistribution % ID/g, kidney / Biodistribution % ID/g, lungs / Biodistribution % ID/g, sm. intestine / route of excretion: iv; for lung uptake in BM-treated (fibrotic) mice compared to sham, in words: biodistribution 2.5 hours after injection
Procedure: as §1

[3] = molecular target: T1, rat tail collagen (Rattus norvegicus, UniProt P02454+P02466); assay: rat tail collagen-binding assay; conditions: 2 hours at room temperature, single binding site model
T1 construct: from tissue; host or cells: rat tail
T1 sequence (P02454 152-1207 limits assumed): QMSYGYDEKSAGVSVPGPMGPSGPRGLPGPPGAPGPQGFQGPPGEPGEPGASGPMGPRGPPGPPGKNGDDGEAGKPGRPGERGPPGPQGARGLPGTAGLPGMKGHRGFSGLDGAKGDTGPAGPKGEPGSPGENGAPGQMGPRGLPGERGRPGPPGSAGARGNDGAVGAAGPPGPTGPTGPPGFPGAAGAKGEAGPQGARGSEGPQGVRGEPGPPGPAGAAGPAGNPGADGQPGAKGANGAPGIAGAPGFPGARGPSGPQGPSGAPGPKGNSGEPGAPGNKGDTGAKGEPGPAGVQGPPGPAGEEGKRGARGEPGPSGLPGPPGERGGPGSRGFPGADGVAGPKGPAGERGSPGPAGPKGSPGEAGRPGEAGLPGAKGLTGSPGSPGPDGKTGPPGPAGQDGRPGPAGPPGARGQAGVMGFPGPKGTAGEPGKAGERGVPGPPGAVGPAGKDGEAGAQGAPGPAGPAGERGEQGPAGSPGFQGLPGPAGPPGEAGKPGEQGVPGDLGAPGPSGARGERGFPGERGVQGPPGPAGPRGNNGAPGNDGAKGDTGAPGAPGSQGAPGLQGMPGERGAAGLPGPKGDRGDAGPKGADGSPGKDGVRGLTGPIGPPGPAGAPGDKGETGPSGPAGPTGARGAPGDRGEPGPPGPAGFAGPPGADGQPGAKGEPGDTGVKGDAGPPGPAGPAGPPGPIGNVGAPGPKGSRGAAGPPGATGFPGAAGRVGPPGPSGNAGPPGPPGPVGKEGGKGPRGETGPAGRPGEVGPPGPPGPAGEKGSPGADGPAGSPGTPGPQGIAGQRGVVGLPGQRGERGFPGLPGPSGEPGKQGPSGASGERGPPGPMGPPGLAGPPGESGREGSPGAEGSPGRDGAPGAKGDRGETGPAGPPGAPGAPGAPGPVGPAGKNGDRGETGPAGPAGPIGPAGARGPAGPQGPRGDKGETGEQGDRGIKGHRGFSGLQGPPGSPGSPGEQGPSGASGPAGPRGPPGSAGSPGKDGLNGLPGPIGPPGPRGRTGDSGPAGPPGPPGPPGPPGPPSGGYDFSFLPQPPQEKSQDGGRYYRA
T1 sequence (P02466 86-1125 limits assumed): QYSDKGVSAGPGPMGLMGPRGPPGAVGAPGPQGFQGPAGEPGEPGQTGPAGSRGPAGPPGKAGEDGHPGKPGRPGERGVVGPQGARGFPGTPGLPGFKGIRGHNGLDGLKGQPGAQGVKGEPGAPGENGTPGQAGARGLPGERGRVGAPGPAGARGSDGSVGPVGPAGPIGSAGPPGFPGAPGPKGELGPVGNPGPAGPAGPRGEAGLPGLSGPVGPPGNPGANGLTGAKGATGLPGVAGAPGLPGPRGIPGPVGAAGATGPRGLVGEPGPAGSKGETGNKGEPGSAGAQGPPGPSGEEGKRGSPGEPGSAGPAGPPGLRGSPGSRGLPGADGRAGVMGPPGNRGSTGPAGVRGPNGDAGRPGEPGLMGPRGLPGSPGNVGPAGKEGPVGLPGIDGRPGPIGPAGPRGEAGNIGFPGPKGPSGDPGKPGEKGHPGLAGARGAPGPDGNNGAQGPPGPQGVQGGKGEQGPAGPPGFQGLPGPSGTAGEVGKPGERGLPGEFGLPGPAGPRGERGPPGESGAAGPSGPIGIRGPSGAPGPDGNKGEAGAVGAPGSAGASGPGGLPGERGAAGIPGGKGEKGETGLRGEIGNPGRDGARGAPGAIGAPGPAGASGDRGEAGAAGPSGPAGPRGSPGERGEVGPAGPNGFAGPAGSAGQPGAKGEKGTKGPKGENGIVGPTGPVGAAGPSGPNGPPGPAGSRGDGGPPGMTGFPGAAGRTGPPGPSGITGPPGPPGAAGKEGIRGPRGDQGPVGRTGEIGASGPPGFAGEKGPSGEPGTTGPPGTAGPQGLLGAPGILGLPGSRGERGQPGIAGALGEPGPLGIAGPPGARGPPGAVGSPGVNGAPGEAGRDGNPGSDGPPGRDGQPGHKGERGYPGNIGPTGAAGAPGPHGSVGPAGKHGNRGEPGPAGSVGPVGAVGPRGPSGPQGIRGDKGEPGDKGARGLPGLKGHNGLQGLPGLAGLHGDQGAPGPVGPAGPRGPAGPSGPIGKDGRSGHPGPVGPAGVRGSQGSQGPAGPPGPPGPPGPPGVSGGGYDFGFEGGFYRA
Procedure: Binding isotherms were obtained by following a method previously reported. (Caravan, P., Das, B., Dumas, S., Epstein, F. H., Helm, P. A., Jacques, V., Koerner, S., Kolodziej, A., Shen, L., Sun, W., Zhang, Z., Angewandte Chemie, 2007, 119(43), 8319-8321.) Briefly, increasing concentrations of a mixture of ^63/65Cu-CBP(n) and ^64Cu-CBP(n) were added to collagen containing wells. […] An aliquot of each solution was reserved as a measure of the total concentration. The plates were incubated on a shaker table (300 rpm) for 2 hours at room temperature to allow the compound to bind. After 2 hours, the supernatant from each well (with or without collagen) was assayed for ^64Cu content. The relative amount of free, unbound compound in the sample supernatants and the amount of compound in the reserved (total) sample were determined by using a gamma counter. The bound concentration is [Total]−[Free]. The concentration of ^63/65Cu-CBP(n) was less than the collagen concentration and the data were fit to a model of a single binding site with dissociation constant, Kd.

| Compound | tissue uptake at 2.5 h ([1]; liver) [%ID/g] | Biodistribution % ID/g, liver ([2]; in vivo, 2.5 h) [% ID/g] | Kd [3] [µM] | tissue uptake at 2 h ([1]; blood) [%ID/g] | tissue uptake at 2 h ([1]; heart) [%ID/g] | tissue uptake at 2 h ([1]; kidney) [%ID/g] | tissue uptake at 2 h ([1]; liver) [%ID/g] | tissue uptake at 2 h ([1]; lungs) [%ID/g] | tissue uptake at 2 h ([1]; sm. intestine) [%ID/g] | tissue uptake at 2 h ([1]; spleen) [%ID/g] | lung uptake in BM-treated (fibrotic) mice compared to sham, in words [2] | Biodistribution % ID/g, blood ([2]; in vivo, 2 h) [% ID/g] | Biodistribution % ID/g, heart ([2]; in vivo, 2 h) [% ID/g] | Biodistribution % ID/g, kidney ([2]; in vivo, 2 h) [% ID/g] | Biodistribution % ID/g, liver ([2]; in vivo, 2 h) [% ID/g] | Biodistribution % ID/g, lungs ([2]; in vivo, 2 h) [% ID/g] | Biodistribution % ID/g, sm. intestine ([2]; in vivo, 2 h) [% ID/g] | Biodistribution % ID/g, spleen ([2]; in vivo, 2 h) [% ID/g] | route of excretion ([2]; mouse, in vivo) | other results |
| --- | --- | --- | --- | --- | --- | --- | --- | --- | --- | --- | --- | --- | --- | --- | --- | --- | --- | --- | --- | --- |
| CC(C)C[C@H](NC(=O)[C@@H]1CSSC[C@@H](NC(=O)[C@H](Cc2c[nH]cn2)NC(=O)[C@H](Cc2c[nH]c3ccccc23)NC(=O)[C@H](CCCCNC(=O)CNC(=O)CCC(C(=O)O)N2CCN(CC(=O)O)CCN(CC(=O)O)CC2)NC(=O)CNC(=O)CCC(C(=O)O)N2CCN(CC(=O)O)CCN(CC(=O)O)CC2)C(=O)N[C@@H]([C@@H](C)O)C(=O)N[C@@H]([C@@H](C)O)C(=O)N[C@@H](CCCCNC(=O)CCC(C(=O)O)N2CCN(CC(=O)O)CCN(CC(=O)O)CC2)C(=O)N[C@@H](Cc2ccccc2)C(=O)N2CCC[C@H]2C(=O)N[C@@H](Cc2c[nH]cn2)C(=O)N[C@@H](Cc2c[nH]cn2)C(=O)N[C@@H](Cc2ccc(O)cc2)C(=O)N1)C(=O)N[C@@H](Cc1ccc(O)cc1)C(=O)N[C@@H](Cc1ccc(-c2ccccc2)cc1)C(N)=O (stereo partly drawn) (64Cu complex, metal not drawn) [CBP11] | 1.3 ± 0.086 | 0.953 ± 0.069 | – | – | – | – | – | – | – | – | – | – | – | – | – | – | – | – | – | tissue uptake at 2.5 h ([1]; blood): 0.21 ± 0.017 %ID/g; tissue uptake at 2.5 h ([1]; heart): 0.143 ± 0.008 %ID/g; tissue uptake at 2.5 h ([1]; spleen): 0.408 ± 0.015 %ID/g; Biodistribution % ID/g, blood ([2]; in vivo, 2.5 h): 0.373 ± 0.180 % ID/g; Biodistribution % ID/g, heart ([2]; in vivo, 2.5 h): 0.170 ± 0.044 % ID/g; Biodistribution % ID/g, spleen ([2]; in vivo, 2.5 h): 0.475 ± 0.063 % ID/g |
| C[C@@H](O)[C@@H]1NC(=O)[C@@H](NC(=O)[C@H](Cc2c[nH]cn2)NC(=O)[C@H](Cc2c[nH]c3ccccc23)NC(=O)[C@H](CCC(N)=O)NC(=O)CNC(=O)CCC(C(=O)O)N2CCN(CC(=O)O)CCN(CC(=O)O)CC2)CSSC[C@@H](C(=O)N[C@@H](Cc2ccccc2)C(=O)N[C@@H](Cc2ccc(O)cc2)C(=O)NCC(N)=O)NC(=O)[C@H](Cc2ccc(O)cc2)NC(=O)[C@H](Cc2c[nH]cn2)NC(=O)[C@H](Cc2c[nH]cn2)NC(=O)[C@@H]2CCCN2C(=O)[C@H](Cc2ccccc2)NC(=O)[C@H](CCCNC(=N)N)NC(=O)[C@H]([C@@H](C)O)NC1=O (stereo partly drawn) [CBP5] ({NODAGA}-GQWHCTTRFPHHYCFYG-NH2; disulfide 5-14) | – | – | 7.2 ± 5.2 | 0.11 ± 0.018 | 0.075 ± 0.009 | 30.5 ± 2.01 | 2.63 ± 0.146 | 0.318 ± 0.135 | 0.513 ± 0.1 | 0.815 ± 0.42 | greater lung uptake in BM-treated mice | 0.121 ± 0.028 | 0.094 ± 0.013 | 18.368 ± 1.909 | 3.836 ± 0.770 | 0.623 ± 0.320 | 0.431 ± 0.089 | 1.588 ± 0.546 | excreted mainly through the kidneys | tissue uptake at 2 h ([1]; bone): 0.703 ± 0.343 %ID/g; tissue uptake dose at 2 h ([1]; Biodistribution % ID/lung): 0.032 ± 0.016 %ID; Biodistribution % ID/g, bone ([2]; in vivo, 2 h): 0.490 ± 0.237 % ID/g; Biodistribution % ID/lung ([2]; mouse, in vivo): 0.016 ± 0.007 % ID/lung |
| CC(C)C[C@H](NC(=O)[C@@H]1CSSC[C@H](NC(=O)[C@H](Cc2c[nH]cn2)NC(=O)[C@H](Cc2c[nH]c3ccccc23)NC(=O)[C@H](CCC(N)=O)NC(=O)CNC(=O)CCC(C(=O)O)N2CCN(CC(=O)O)CCN(CC(=O)O)CC2)C(=O)N[C@@H](Cc2ccc(O)cc2)C(=O)N[C@@H]([C@@H](C)O)C(=O)N[C@@H](CC(C)C)C(=O)N[C@@H](Cc2ccccc2)C(=O)N2CCC[C@H]2C(=O)N[C@@H](Cc2c[nH]cn2)C(=O)N[C@@H](Cc2c[nH]cn2)C(=O)N[C@@H](Cc2ccc(O)cc2)C(=O)N1)C(=O)N[C@@H](Cc1ccc(O)cc1)C(=O)NCC(N)=O (stereo partly drawn) [CBP6] ({NODAGA}-GQWHCYTLFPHHYCLYG-NH2; disulfide 5-14; C-terminus assumed) | – | – | 14.6 ± 5.8 | 0.147 ± 0.01 | 0.121 ± 0.017 | 13.4 ± 1.23 | 2.64 ± 0.144 | 0.013 ± 0.002 | 0.747 ± 0.168 | 0.669 ± 0.03 | greater lung uptake in BM-treated mice | 0.279 ± 0.096 | 0.156 ± 0.016 | 14.008 ± 0.727 | 2.503 ± 0.218 | 0.019 ± 0.003 | 0.938 ± 0.164 | 0.775 ± 0.084 | excreted mainly through the kidneys | – |
| CC(C)C[C@H](NC(=O)[C@@H]1CSSC[C@H](NC(=O)[C@H](Cc2c[nH]cn2)NC(=O)[C@H](Cc2c[nH]c3ccccc23)NC(=O)[C@H](CCCCNC(=O)CNC(=O)CN2CCN(CC(=O)O)CCN(CC(=O)O)CC2)NC(=O)CNC(=O)CN2CCN(CC(=O)O)CCN(CC(=O)O)CC2)C(=O)N[C@@H]([C@@H](C)O)C(=O)N[C@@H]([C@@H](C)O)C(=O)N[C@@H](CCCCNC(=O)CN2CCN(CC(=O)O)CCN(CC(=O)O)CC2)C(=O)N[C@@H](Cc2ccccc2)C(=O)N2CCC[C@H]2C(=O)N[C@@H](Cc2c[nH]cn2)C(=O)N[C@@H](Cc2c[nH]cn2)C(=O)N[C@@H](Cc2ccc(O)cc2)C(=O)N1)C(=O)N[C@@H](Cc1ccc(O)cc1)C(=O)N[C@@H](Cc1ccc(-c2ccccc2)cc1)C(N)=O [CBP10, Al^18F-NOTA-cPep(7)] | 14 ± 1 | 27.231 ± 0.995 | – | – | – | – | – | – | – | – | – | – | – | – | – | – | – | – | – | tissue uptake at 2.5 h ([1]; bone): 2.53 ± 0.735 %ID/g; tissue uptake at 2.5 h ([1]; kidney): 26.2 ± 4.85 %ID/g; tissue uptake at 2.5 h ([1]; sm. intestine): 1.12 ± 0.48 %ID/g; Biodistribution % ID/g, bone ([2]; in vivo, 2.5 h): 2.963 ± 0.716 % ID/g; Biodistribution % ID/g, kidney ([2]; in vivo, 2.5 h): 44.170 ± 16.811 % ID/g; Biodistribution % ID/g, sm. intestine ([2]; in vivo, 2.5 h): 1.492 ± 0.542 % ID/g |
